Test [1] deals with Split RSV37° C. (standard preparation of inactivated split RSV vaccine) (respiratory syncytial virus) (UniProt P03420). Description: ELISA on coated virus preparation; grade +++++ = OD 2-2.5.
Test [2] deals with Split RSV4° C. (inactivated at low temperature (4° C.) and split) (respiratory syncytial virus) (UniProt P03420). Description: ELISA on coated virus preparation; grade ++++++ = OD >2.5. (In an ELISA, binding on a coated surface is turned into a signal by an enzyme label.)
Sequence of Split RSV4° C. (inactivated at low temperature (4° C.) and split) (respiratory syncytial virus) (P03420 26-574): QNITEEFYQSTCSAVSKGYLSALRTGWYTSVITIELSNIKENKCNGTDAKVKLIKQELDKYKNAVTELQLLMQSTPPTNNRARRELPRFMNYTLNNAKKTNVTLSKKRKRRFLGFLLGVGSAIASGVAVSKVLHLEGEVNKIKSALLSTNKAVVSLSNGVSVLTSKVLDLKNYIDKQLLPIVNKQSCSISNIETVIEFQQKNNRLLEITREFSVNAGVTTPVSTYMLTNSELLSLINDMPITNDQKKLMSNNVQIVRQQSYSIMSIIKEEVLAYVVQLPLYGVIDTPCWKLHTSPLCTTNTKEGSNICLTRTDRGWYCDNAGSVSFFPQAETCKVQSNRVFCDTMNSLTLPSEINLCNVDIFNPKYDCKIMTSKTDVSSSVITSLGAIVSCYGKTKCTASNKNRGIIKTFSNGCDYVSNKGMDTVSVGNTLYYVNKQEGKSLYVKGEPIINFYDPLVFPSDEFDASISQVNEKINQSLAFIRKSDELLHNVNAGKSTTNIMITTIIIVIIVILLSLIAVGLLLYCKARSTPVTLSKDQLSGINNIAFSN
The target in test [3] is Live RSV (A2 strain) (respiratory syncytial virus A2 strain) (UniProt P03420). The test is described as follows: ELISA on coated virus; grade +++ = OD 1-1.5.
Sequence of Live RSV (A2 strain) (respiratory syncytial virus A2 strain) (P03420 26-574): as above
For test [4], the target named is FI-RSV (post F): formalin-inactivated whole RSV (respiratory syncytial virus) (UniProt P03420). The test is described as follows: ELISA on coated virus preparation; grade +++ = OD 1-1.5.
Sequence of UniProt P03420 (P03420 26-574): as above

A value given as a limit tells only on which side of the number the result lay.

Sequence of Split RSV37° C. (standard preparation of inactivated split RSV vaccine) (respiratory syncytial virus) (P03420 26-574): as above

For the substance palivizumab (antibody), the ELISA OD in test [1] is 2 to 2.5 od; in test [2] it was > 2.5 od; in test [3], 1 to 1.5 od; in test [4] it was 1 to 1.5 od.

The values are drawn from patent US20210052718A1.
